Results from the supplement of paper PMC12042874.
± gives the uncertainty stated by the source.

Assay: amyloid nucleation score (Sup35N fusion, yeast selection) (log enrichment); library NNK2; higher = more nucleation; inactive = no reads after selection
Summary of the method: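 Three technical output replicates were used for random libraries. Psi-negative yeast expressing peptides of 20 random codons fused to Sup35N were induced with 100 μM copper sulfate for 24 hours and grown 7 days at 30°C on medium lacking adenine and uracil, and input and output plasmid inserts were Illumina-sequenced, excluding sequences with under 100 input reads. The nucleation score is the DiMSum log enrichment of output over input reads, centred on the mode score of non-aggregating sequences.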

Substance	amyloid nucleation score
INGVPNGYMATLGTTCVKKF	-1.11 ± 0.4
INMTLELDSVRRNLLYAGGG	-0.142 ± 0.55
INRCMLIPTRFVVAYSWKCV	-1.03 ± 0.78
INVHSSSG	0.344 ± 0.36
IPITSGIRRNCSSVRKDLGC	0.123 ± 0.39
IPRIDDSDLFRTLDF	-0.52 ± 1.1
IPTTQLAHCGQVACPARVVP	1.23 ± 0.28
IPYNLIASVMLFKDLNWFAK	6.491 ± 0.05
IQASSLMVAKERFWGDLWWL	4.34 ± 0.1
IQDWHVES	-0.075 ± 0.46
IQLMEFWLSGGLTVIMGILR	-0.971 ± 0.61
IQPQSSVVERGQMNMVGPTP	1.49 ± 0.12
IRAGAWLEICRSAVVSGPSF	-0.073 ± 0.33
IRCGREGLRR	inactive
IRCLFVT	inactive
IREYHMFDGHMRDRCFGQVK	-0.048 ± 0.65
IRFKVMGFMFFVSW	0.094 ± 0.65
IRFQCRSLRFTAIGGQVSWI	3.48 ± 0.095
IRFRVLVPNLGKASDRFQVP	-0.19 ± 0.53
IRFWLRRFICD	-0.528 ± 0.36
IRFYGS	inactive
IRGSKSFHLCEAK	0.213 ± 0.33
IRKCICSWCVECILRNPAKA	-0.434 ± 0.4
IRLTSAYLHSDVWGVMQWNK	4.823 ± 0.041
IRMLLYCMESELKGASVEAG	-0.037 ± 0.5

Substance	amyloid nucleation score
IRMVDTCRVLKLSGEPFSRD	-0.993 ± 0.78
IRNDKYW	-0.101 ± 0.31
IRSFEFHNAWMCVYIWSKLY	-0.271 ± 1
IRSLMSR	2.32 ± 0.061
IRSMACDIPGV	-0.255 ± 0.65
IRSNIGNSWNTLIFVYCCYT	6.415 ± 0.049
IRTDSTNMCF	-0.647 ± 1.1
IRVTCLLGL	-0.055 ± 0.2
IRVYFRDEYLKFG	-0.358 ± 0.19
IRWSVGSGKIRGSFLLLMDL	-0.432 ± 1.1
IRYNLGGDQLG	-0.805 ± 0.44
IRYWLNERMVSDRRTVTGGV	7.47 ± 0.077
IRYWSMLLEVG	5.683 ± 0.046
ISAWAWHQVTWRIPGALVVG	0.294 ± 1.1
ISCKSFENTTHPALIPRVKA	-0.331 ± 0.5
ISCNKIIDIKMWGWVCAIA	8.729 ± 0.035
ISDLCNASGWIRKDTSSRRL	-0.27 ± 0.23
ISESLSRWART	3.69 ± 0.12
ISFDLCIKRWQK	5.946 ± 0.054
ISGRLNRDGGSDKMSAEREG	1.25 ± 0.33
ISGWYVVSSVS	0.912 ± 0.22
ISHLRVLEQSLLAEWADNFP	2.08 ± 0.097
ISHMYCSFGSLVLFSGIRFR	-0.774 ± 0.53
ISHYAYQ	0.811 ± 0.57
ISLDWAPN	inactive

Substance	amyloid nucleation score
ISLISHVLANLSVIRDHANE	-0.68 ± 0.4
ISPISEQHMLSLTSYEP	1.74 ± 0.35
ISQRSNASCVN	0.966 ± 0.48
ISRILRKYNVIVRSSSVSRG	-1.06 ± 0.31
ISRYEGRRLKCDGITFGYSG	-0.031 ± 0.23
ISSSIEHNRCGVEINVICWS	7.312 ± 0.051
ISVFLVMQRCVYDSYAFQAE	-0.503 ± 0.63
ISYKAWMFRGRMNSVGISRY	-0.299 ± 0.63
ITKNHSVDDRCTMMYFYLCV	3.76 ± 0.093
ITSVKHCAS	1.05 ± 0.53
IVCDVLNWPYFVAMAF	0.25 ± 0.8
IVCTYFHSTPSCYRLASNWY	0.284 ± 1.1
IVDGVYEFKC	-0.779 ± 0.32
IVDSVR	0.388 ± 0.32
IVFYVEVVLMAECLADVKRV	5.56 ± 0.081
IVGSDGGNIFTRLGCSAYRE	-1.14 ± 0.35
IVIGRQCPTWFDVARYR	1.07 ± 0.34
IVLNVYMRKTKQV	0.078 ± 0.29
IVLSGWLSSPSYASWDFCMR	0.07 ± 0.77
IVMSCSMNPIEAYEVLCEFF	0.382 ± 0.8
IVNSNWGARRNKRAACQRES	-0.317 ± 0.79
IVSAKCYRIMVDFYYGYFRL	0.01 ± 0.65
IVSAKDILRLIYSVCGAGLG	-0.264 ± 0.48
IVSIT	-0.271 ± 0.24
IVSSSNFFKLMYCMFILRIS	0.247 ± 1

Substance	amyloid nucleation score
IVTAGWNLVFRKYADTRMVQ	-0.337 ± 1.1
IVVNNCSEVLEVGSDDAVKR	inactive
IWGLIAYLDSFNNFALDRRK	-1.03 ± 0.42
IYACGYGLFYEYHTCSMCEI	-0.977 ± 0.34
IYALFLICLLHISVGLLMYR	-0.179 ± 0.63
IYCIFRTSKLMNGVMVHSRQ	-0.454 ± 0.37
IYCLRAGTKHSSLLGAKEDK	0.594 ± 0.66
IYFWDTLTFLLSCLHAAGEN	-1.87 ± 0.64
IYLRESSVYILVFLRTFLVA	-0.542 ± 0.64
IYLYPSYWCCFNRL	9.605 ± 0.059
IYQIGDEQHDFLCPLKVFVN	-0.336 ± 0.76
IYRKSICYSFVWALFEVAEW	-0.398 ± 0.35
IYRLDHRACP	1.03 ± 0.38
IYTSSGL	-0.902 ± 0.54
IYWTNLSRLKTGANRLRDKK	0.177 ± 0.8
IYYGSRISPTWAGRLLCGER	-0.185 ± 0.44
KACWCLYQGLTLSAQVQLWP	1.26 ± 0.26
KAGLWYNCPAMYDGYLRLKA	1.98 ± 0.15
KAGTGVVSANK	0.644 ± 0.39
KALFLYYSSVRITHNKLHAR	inactive
KAMYFYSRTVRPMMGSEEGS	-0.072 ± 0.4
KASMCGMKVWKFFQYLIKMV	-1.1 ± 0.61
KAVCGCLLLGFVNFLYPVEV	-0.495 ± 0.21
KCDLMRWSHFQ	1.24 ± 0.48
KCGSTFPLDLLYMSY	-1.16 ± 0.49

Substance	amyloid nucleation score
KCLCAGFLF	-0.577 ± 0.38
KCLSRNPHSIDFMRNARYKD	-0.92 ± 0.33
KCNVMRQMRFMLPFTVIVVL	0.204 ± 0.31
KDAFT	-0.895 ± 0.49
KDCYNHSGRTGVVTDQKAQW	-0.118 ± 0.41
KDTMK	-0.001 ± 0.24
KERRSSVLVKNRVCSNGYF	inactive
KETTGWLRYIP	-0.56 ± 0.56
KFHHGFLGELPAPEYSSESA	0.25 ± 0.42
KFNCLGLWDEYHNSM	0.259 ± 0.43
KFTLCWRTRMAFMSPWLMRI	inactive
KFYVCCATCGCDKINELPVT	8.088 ± 0.06
KFYYVTGDATLNRDLWGSRA	-0.79 ± 0.34
KGCEIFLVLAMCDKCSGFL	3.69 ± 0.12
KGGLRISSLVTYM	0.274 ± 1.1
KGGWNKGEPMFFLVMCMYVN	4.8 ± 0.054
KGIAVSVVPYSPVNTGDSAV	0.632 ± 0.48
KGNHRRVKTSIYNFFKVSNC	0.445 ± 0.29
KHFAIW	-0.08 ± 1
KHVLGWNISFFYFTFAIG	inactive
KICCIQVLLKYMGQWVQFR	0.053 ± 1.1
KIEVRLRVTYGYSSLVQAVG	-0.326 ± 1
KIFNSSSFFQL	0.098 ± 0.65
KIFTSCKELTVVGLVASYMN	0.782 ± 0.51
KIHQRRVTSTANRCTILAAN	-0.572 ± 0.76

Substance	amyloid nucleation score
KINVSRFN	-0.146 ± 0.33
KIRSLCPRRKVILSASGQQL	0.971 ± 0.17
KKKYACRPAVRFLSIYCWFA	0.406 ± 0.4
KKQSRIHLSTSKNRFTWNTW	0.007 ± 0.35
KKTSEKLEGYNVNISVLRGY	2.59 ± 0.23
KLAYIAMTVSITGFDPCAWD	2.55 ± 0.068
KLCLGIGCRRQDTQAFGPPL	5.65 ± 0.083
KLGDWARRPCSSGPARTYGR	0.843 ± 0.19
KLKSDLMNRTVGDLPVRARP	5.105 ± 0.048
KLMWERTFVCSRKRFKTYYK	-0.359 ± 0.41
KLQTLLQWFGLY	-0.392 ± 0.41
KLSIWGLRGVVGAWRCHTGY	inactive
KLTLLKTL	inactive
KLVIKLRIIYYASV	3.74 ± 0.084
KLWETRACFVTCR	0.362 ± 0.4
KLYMCVIFYCLKGRLLVTYM	-1.18 ± 0.63
KMDRDS	-0.125 ± 0.38
KMDSRSKTMRWYSCGSD	1.53 ± 0.26
KMLSMDNYD	0.043 ± 1
KMVYGLQGWLGLGSTVFWSP	3.2 ± 0.13
KNLMCQARNYSLIGALWSVS	-0.451 ± 0.76
KNNIWVIYPFVNG	6.434 ± 0.064
KPNPFLVLLLRT	-0.123 ± 0.46
KPRMWIYIFMAWEAYPAYI	inactive
KRARR	0.356 ± 0.4

Substance	amyloid nucleation score
KRDPLFRVLGT	0.071 ± 0.79
KRFIWCFRVTLFT	-0.633 ± 1.1
KRGCNQHFNSMRYLVMFLVS	-0.915 ± 0.62
KRMSPWAVFGC	0.872 ± 0.47
KRNMSCVLYIWDWHPASLLM	inactive
KRVFMWRSG	-0.424 ± 1.1
KRYGAVHDVCMRVSFNASQV	1.2 ± 0.32
KRYWSPVFVQNYIDDFKVSD	0.453 ± 0.34
KSAIVRYQVGRVALEFFAAG	inactive
KSCCDGRNYDKIPRVRSSRT	0.206 ± 0.43
KSCVGYLSAMESSVRL	0.045 ± 0.79
KSDPAVIPY	0.713 ± 0.45
KSFGVDYFFCVKLTSCGIQC	3.25 ± 0.12
KSGMWAFYSEDKRTSGLLRW	0.626 ± 0.65
KSHLVF	-0.312 ± 0.65
KSISVSLLVEGAVVSLSAYI	4.21 ± 0.11
KSMEGSNVMSRRYNWPWKDS	0.062 ± 0.63
KSVRGPCSYIFKYSCY	2.59 ± 0.22
KSYLFESRKIGIVTNMGSYF	-0.594 ± 1.1
KTAFKSNTEITSPLVTVLAL	0.555 ± 0.33
KTCTLIGAMLIA	-0.385 ± 0.56
KTCVPDYNNGWRFDFAYLD	-0.795 ± 0.45
